Earlier results in patent publication US20220023273A1, “METHODS FOR TREATING SYMPTOMS AND DISORDERS ASSOCIATED WITH LYSOSOMAL STORAGE DISEASES” (GENZYME CORPORATION, priority 2019, published 2022).

Test system: plasma GL-3
Conditions: after 156 weeks; matched historical phase 3 trial patients treated with agalsidase beta; cited from earlier work

B1: agalsidase beta: semisynthetic enzyme agalsidase beta (alpha-galactosidase), enzyme replacement therapy for Fabry disease (protein, UniProt P06280 32-429, looked up)
Alpha-galactosidase A: LDNGLARTPTMGWLHWERFMCNLDCQEEPDSCISEKLFMEMAELMVSEGWKDAGYEYLCIDDCWMAPQRDSEGRLQADPQRFPHGIRQLANYVHSKGLKLGIYADVGNKTCAGFPGSFGYYDIDAQTFADWGVDLLKFDGCYCDSLENLADGYKHMSLALNRTGRSIVYSCEWPLYMWPFQKPNYTEIRQYCNHWRNFADIDDSWKSIKSILDWTSFNQERIVDVAGPGGWNDPDMLVIGNFGLSWNQQVTQMALWAIMAAPLFMSNDLRHISPQAKALLQDKDVIAINQDPLGKQGYQLRQGDNFEVWERPLSGLAWAVAMINRQEIGGPRSYTIAVASLGKGVACNPACFITQLLPVKRKLGFYEWTSRLRSHINPTGTVLLQLENTMQMSLKDLL
For B1, the “Plasma GL-3 levels” value is given as 4.44 µg/mL.
